Measurements reported in patent US20160137739A1 (KINIKSA PHARMACEUTICALS, published 2016).

T1: OSMR (UniProt Q99650 28-740)
T1 sequence (looked up): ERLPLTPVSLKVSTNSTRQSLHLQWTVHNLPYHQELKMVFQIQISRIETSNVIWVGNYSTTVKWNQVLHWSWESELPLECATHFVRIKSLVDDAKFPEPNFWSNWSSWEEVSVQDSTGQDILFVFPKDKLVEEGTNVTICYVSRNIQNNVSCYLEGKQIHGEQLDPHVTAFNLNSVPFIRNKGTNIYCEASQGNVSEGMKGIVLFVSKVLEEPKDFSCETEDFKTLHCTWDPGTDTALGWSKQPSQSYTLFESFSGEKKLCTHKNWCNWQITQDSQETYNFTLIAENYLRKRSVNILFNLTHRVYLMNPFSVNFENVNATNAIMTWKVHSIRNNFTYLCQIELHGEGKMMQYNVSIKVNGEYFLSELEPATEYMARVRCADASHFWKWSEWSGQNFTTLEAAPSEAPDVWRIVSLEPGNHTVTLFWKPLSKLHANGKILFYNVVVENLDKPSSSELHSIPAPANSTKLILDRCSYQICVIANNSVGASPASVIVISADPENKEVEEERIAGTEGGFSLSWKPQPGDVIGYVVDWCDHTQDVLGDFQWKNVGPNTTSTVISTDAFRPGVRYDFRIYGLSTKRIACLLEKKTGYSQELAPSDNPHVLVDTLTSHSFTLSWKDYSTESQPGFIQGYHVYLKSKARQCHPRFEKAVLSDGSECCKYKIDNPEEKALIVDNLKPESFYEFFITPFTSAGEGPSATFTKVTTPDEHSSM

T2: cynomologus OSMR expressed on cells (cynomologus monkey (Macaca fascicularis), UniProt Q99650 28-978 (human entry))
T2 chain: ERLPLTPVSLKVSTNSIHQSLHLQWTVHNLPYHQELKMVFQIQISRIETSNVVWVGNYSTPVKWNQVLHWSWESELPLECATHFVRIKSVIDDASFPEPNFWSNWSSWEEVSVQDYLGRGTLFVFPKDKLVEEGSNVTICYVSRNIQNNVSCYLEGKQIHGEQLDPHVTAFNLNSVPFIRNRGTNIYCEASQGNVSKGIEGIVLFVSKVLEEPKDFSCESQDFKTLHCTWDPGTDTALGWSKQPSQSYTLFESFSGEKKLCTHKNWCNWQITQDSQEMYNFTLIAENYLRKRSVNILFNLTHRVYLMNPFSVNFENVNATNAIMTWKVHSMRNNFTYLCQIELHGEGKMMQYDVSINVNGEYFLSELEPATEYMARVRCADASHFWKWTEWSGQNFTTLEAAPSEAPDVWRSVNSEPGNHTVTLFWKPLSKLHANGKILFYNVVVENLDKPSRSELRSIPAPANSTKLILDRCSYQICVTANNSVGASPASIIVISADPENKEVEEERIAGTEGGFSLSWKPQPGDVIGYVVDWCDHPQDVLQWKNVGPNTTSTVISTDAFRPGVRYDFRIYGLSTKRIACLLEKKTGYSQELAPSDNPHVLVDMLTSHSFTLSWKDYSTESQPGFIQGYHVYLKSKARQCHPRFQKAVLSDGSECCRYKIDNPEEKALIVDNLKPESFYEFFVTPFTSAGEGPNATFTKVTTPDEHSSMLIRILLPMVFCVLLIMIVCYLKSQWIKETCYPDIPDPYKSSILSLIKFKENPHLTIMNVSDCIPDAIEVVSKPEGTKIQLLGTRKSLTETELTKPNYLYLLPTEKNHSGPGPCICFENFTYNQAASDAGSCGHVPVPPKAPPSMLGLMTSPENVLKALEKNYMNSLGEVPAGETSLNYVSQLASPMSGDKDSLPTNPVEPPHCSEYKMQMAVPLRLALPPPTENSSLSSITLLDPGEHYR

T3: Soluble OSMR (UniProt Q99650 28-740)
T3 sequence (looked up): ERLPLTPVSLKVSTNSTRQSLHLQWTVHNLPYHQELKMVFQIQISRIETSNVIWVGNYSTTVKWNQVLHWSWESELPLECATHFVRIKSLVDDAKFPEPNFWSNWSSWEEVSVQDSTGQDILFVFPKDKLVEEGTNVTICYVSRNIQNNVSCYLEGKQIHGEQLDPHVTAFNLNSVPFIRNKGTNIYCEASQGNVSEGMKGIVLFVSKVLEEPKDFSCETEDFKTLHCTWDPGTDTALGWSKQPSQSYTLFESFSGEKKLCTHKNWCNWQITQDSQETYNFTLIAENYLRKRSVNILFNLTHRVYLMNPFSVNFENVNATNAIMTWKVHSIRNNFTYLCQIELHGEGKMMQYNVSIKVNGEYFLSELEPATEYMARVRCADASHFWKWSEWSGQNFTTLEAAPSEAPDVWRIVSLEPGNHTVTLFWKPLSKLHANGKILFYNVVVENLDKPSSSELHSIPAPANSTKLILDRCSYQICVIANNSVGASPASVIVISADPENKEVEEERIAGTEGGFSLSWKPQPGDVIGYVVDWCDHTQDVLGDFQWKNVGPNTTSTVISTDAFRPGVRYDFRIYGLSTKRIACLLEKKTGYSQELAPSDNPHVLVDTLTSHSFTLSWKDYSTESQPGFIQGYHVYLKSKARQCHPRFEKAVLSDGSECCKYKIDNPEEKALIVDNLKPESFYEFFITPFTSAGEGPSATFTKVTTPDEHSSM

T4: human OSMR expressed on cells (human, UniProt Q99650 28-979)
T4 sequence: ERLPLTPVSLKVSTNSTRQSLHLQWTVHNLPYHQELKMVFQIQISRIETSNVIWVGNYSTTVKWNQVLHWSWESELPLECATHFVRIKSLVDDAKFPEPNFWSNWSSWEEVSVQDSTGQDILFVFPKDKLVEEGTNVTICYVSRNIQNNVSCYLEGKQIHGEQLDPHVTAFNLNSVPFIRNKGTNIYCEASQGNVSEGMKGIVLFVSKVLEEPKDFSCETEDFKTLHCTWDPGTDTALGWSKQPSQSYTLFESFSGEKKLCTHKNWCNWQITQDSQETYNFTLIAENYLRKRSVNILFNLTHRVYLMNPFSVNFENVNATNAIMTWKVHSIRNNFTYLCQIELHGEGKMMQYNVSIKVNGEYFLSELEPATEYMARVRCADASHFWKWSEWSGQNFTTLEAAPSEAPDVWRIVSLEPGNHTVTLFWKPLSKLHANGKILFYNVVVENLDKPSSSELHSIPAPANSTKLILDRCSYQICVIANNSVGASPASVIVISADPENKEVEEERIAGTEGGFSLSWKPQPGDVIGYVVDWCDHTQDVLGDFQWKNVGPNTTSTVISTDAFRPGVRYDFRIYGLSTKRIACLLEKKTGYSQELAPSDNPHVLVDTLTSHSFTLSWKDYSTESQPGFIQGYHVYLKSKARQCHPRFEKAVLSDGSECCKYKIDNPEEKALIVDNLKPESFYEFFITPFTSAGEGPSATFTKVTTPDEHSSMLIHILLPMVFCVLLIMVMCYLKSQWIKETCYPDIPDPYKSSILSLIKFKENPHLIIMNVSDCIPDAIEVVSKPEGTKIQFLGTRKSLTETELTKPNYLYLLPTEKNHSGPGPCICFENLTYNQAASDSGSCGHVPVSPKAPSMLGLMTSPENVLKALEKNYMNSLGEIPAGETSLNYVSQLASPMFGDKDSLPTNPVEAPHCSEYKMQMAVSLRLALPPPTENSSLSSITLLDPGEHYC

T5: hOSMR.FH (human, UniProt Q99650 28-740)
T5 construct: also called huOSMR
T5 sequence: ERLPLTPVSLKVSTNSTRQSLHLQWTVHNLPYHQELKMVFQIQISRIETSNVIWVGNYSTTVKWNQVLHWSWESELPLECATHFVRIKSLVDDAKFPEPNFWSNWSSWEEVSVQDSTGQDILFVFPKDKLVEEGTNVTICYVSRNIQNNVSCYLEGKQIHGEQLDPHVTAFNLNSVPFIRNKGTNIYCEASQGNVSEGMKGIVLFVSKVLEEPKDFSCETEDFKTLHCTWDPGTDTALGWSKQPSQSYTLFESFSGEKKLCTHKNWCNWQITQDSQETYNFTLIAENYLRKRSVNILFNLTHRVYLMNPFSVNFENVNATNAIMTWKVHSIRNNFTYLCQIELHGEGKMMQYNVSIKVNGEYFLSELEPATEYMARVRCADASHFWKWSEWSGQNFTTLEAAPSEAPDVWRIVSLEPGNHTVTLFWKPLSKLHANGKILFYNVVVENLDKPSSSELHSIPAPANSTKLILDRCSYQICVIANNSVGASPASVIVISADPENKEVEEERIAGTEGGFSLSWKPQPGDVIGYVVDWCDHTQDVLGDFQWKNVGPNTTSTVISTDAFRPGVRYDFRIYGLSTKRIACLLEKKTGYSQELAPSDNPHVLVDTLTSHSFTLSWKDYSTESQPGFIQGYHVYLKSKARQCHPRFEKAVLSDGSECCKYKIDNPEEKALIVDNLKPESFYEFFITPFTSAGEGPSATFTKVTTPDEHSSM


Assays:
[1] = biological target: T1, OSMR; experiment: Direct ELISA (solid state avidity format)
[2] = biological target: T2, cynomologus OSMR expressed on cells; experiment: cell-based or functional assay
[3] = biological target: T1, OSMR; experiment: Capture ELISA (avidity-less format)
[4] = biological target: T3, Soluble OSMR; experiment: BIAcore, antibody immobilized on CM4 chip, soluble OSMR analyte
Description: Binding studies were performed using the BIAcore method. Antibodies containing the variable regions of Ab1 or Ab2 (or the N73D variant of Ab1 or Ab2) with different Fe regions were immobilized on a CM4 chip (GE lifesciences) as per manufacturer's protocols. Soluble OSMR was used as the analyte.

[5] = biological target: T4, human OSMR expressed on cells; experiment: cell-based or functional assay
[6] = biological target: T5, hOSMR.FH; experiment: SPR, Biacore 3000, antibody captured by anti-human IgG, hOSMR.FH analyte, 25 C
Description: Biosensor analysis was conducted at 25 C in a HBS-EP+(1×) buffer system (10 mM HEPES pH 7.4, 150 mM NaCl, 3.0 mM EDTA, 0.05% Surfactant P20) using a Biacore 3000 optical biosensor equipped with a CM5 sensor chip. All reagents were kept at 8° C. prior to injection. […] Antibodies 1-3 were diluted (0.25 to 0.5 μg/mL) in running buffer. The antibodies were injected (15 μL) over Flow Cell 2 at a flow rate of 10 μL/min. About 50 RU of antibody was captured. […] Samples were run in duplicate and in random order.
Buffer analyte blanks (0 nM hOSMR) were injected before, in-between, and after sample injections. Antibodies were injected (15 μL) over Flow Cell 2 at a flow rate of 10 μL/min. About 50 RU of antibody was captured. […] The samples were run in triplicate.
Data was analyzed with Scrubber 2.0 software as follows. Data from Flow Cell 2 was subtracted from the data from Flow Cell I (blank reference). The reference subtracted data (2-1) was then subtracted (double referenced) from the nearest 0 nM concentration data. The double referenced long dissociation data was fit to a 1:1 binding model to determine the dissociation rate constant (kd). This dissociation rate constant was used as a fixed parameter to fit the double referenced short dissociation data to a 1:1 binding model in order to determine the association rate constant (ka) and the equilibrium dissociation constant (Kd).

[7] = biological target: T1, OSMR; experiment: Sandwich ELISA (solution phase format)

Binder	EC50 [1] [nM]	IC50, cyno IL-31-induced proliferation of BaF3 cells overexpressing cyno IL-31RA and OSMR [2] [nM]	IC50, cyno OSM-induced STAT3 nuclear translocation in a primary kidney epithelial cell line [2] [nM]	EC50 [3] [nM]	Kd [4] [nM]	koff [4] [s⁻¹]	kon [4] [M⁻¹ s⁻¹]	IC50, IL-31-induced proliferation of BaF3 cells expressing human IL-31RA4 and OSMR [5] [nM]	IC50, OSM-induced STAT3 nuclear translocation in primary normal human lung fibroblasts [5] [nM]	Kd [6] [nM]	koff [6] [s⁻¹]	kon [6] [M⁻¹ s⁻¹]	EC50 [7] [nM]
Ab1 (antibody, human IgG2, lambda, V domains shown, also called Ab1 IgG2 WT; antibody 1) VH: QVQLVQSGAEVKKPGASVKVSCKASGYTFTSYDINWVRQATGQGLEWMGWMNPNSGNTDYAQKFQGRVTMTRNISISTAYIELSSLRSEDTAVYYCARDMVAANTDYYFYYGMDVWGQGTTVTVSS VL: not shown	0.184	0.225	1.26	10.2	0.913	0.00015	164000	0.0352	0.157	0.221	9.95e-05	447000	0.581
Ab2 N73D IgG4P agly/IgG1 (antibody, V domains shown) VH: QVQLVQSGAEVKKPGASVKVSCKASGYTFTSYEINWVRQATGQGLEWMGWMNPNSGYTGYAQKFQGRVTMTRDTSISTAYMEMSSLRSEDTAVYYCARDIVAANTDYYFYYGMDVWGQGTTVTVSS VL: QSVLTQPPSASGTPGQRVTISCSGSNSNIGSNTVNWYHQLPGTAPKLLIYNINKRPSGVPDRFSGSKSGSSASLAISGLQSEDEADYYCSTWDDSLDGVVFGGGTKLTVLG	0.0558			1.61									0.064
Ab1 N73D IgG2 (antibody, V domains shown, also called Ab1 version 2) VH: QVQLVQSGAEVKKPGASVKVSCKASGYTFTSYDINWVRQATGQGLEWMGWMNPNSGNTDYAQKFQGRVTMTRDISISTAYIELSSLRSEDTAVYYCARDMVAANTDYYFYYGMDVWGQGTTVTVSS VL: not shown	0.0728			4.85	0.675	0.000168	249000						0.359
Ab2 N73D IgG2 (antibody, V domains shown, also called Ab2 version 2) VH: QVQLVQSGAEVKKPGASVKVSCKASGYTFTSYEINWVRQATGQGLEWMGWMNPNSGYTGYAQKFQGRVTMTRDTSISTAYMEMSSLRSEDTAVYYCARDIVAANTDYYFYYGMDVWGQGTTVTVSS VL: QSVLTQPPSASGTPGQRVTISCSGSNSNIGSNTVNWYHQLPGTAPKLLIYNINKRPSGVPDRFSGSKSGSSASLAISGLQSEDEADYYCSTWDDSLDGVVFGGGTKLTVLG	0.179			5.49	0.289	4.99e-05	173000						0.343
Ab2 (antibody, human IgG2, lambda, V domains shown, also called Ab2 IgG2 WT; antibody 2) VH: QVQLVQSGAEVKKPGASVKVSCKASGYTFTSYEINWVRQATGQGLEWMGWMNPNSGYTGYAQKFQGRVTMTRNTSISTAYMEMSSLRSEDTAVYYCARDIVAANTDYYFYYGMDVWGQGTTVTVSS VL: QSVLTQPPSASGTPGQRVTISCSGSNSNIGSNTVNWYHQLPGTAPKLLIYNINKRPSGVPDRFSGSKSGSSASLAISGLQSEDEADYYCSTWDDSLDGVVFGGGTKLTVLG	0.182	0.0293	0.518	3.63	1.01	0.000189	188000	0.0276	0.252	0.0327	1.81e-05	550000	0.366
Ab1 N73D IgG4P agly/IgG1 (antibody, V domains shown) VH: QVQLVQSGAEVKKPGASVKVSCKASGYTFTSYDINWVRQATGQGLEWMGWMNPNSGNTDYAQKFQGRVTMTRDISISTAYIELSSLRSEDTAVYYCARDMVAANTDYYFYYGMDVWGQGTTVTVSS VL: not shown	0.0626			2.86									0.05
Ab3 (antibody, human IgG2, kappa, V domains shown, also called antibody 3) VH: QVHLVQSGAEVKKPGASVKVSCKASGYTFTSYGISWVRQAPGQGLEWMGWLSTYSGNTNYAQKLQGRVTMTTDTSTSTAYMELRSLRSDDTAVYYCARGNFYYYGMDVWGQGTTVTVSS VL: not shown		6.87	1.24					0.78	1.35	1.08	0.000102	94700	
